According to US20240043478A1:

How the values were obtained:
[1] = biological target: human polyclonal IgG (available from Japan Blood Products Organization) (human); test: dynamic binding, 3 mg/mL IgG, 10% breakthrough, 5 min retention
[2] = biological target: human polyclonal IgG (available from Japan Blood Products Organization) (human); test: elution ratio at pH 4.0 relative to PN-621
[3] = biological target: human polyclonal IgG (available from Japan Blood Products Organization) (human); test: immobilised on agarose gel; IgG eluted at pH 4.0 as % of pH 4.0 + pH 2.8 eluates

Binding Amount of IgG [1] [mg/mL gel] | Elution Ratio, relative ratio with respect to PN-621 [2] | Elution Ratio (%) under Weakly Acidic Conditions [3] [%] | Binder
69 | 1.79 | 82.9 | PN-621 Variant, five sequences α10 and one sequence β10 (designed binder) ADNIFNEELQHAFYLILHLPNLTEEQRNAFIQSLRDDPSVVAEILAEARRLNDAQAPRADNIFNEELQHAFYLILHLPNLTEEQRNAFIQSLRDDPSVVAEILAEARRLNDAQAPRADNIFNEELQHAFYLILHLPNLTEEQRNAFIQSLRDDPSVVAEILAEARRLNDAQAPRADNIFNEELQHAFYLILHLPNLTEEQRNAFIQSLRDDPSVVAEILAEARRLNDAQAPRADNIFNEELQHAFYLILHLPNLTEEQRNAFIQSLRDDPSVVAEILAEARRLNDAQAPRADNIFNEELQHAFYLILHLPNLTEEQRNAFIQSLRDDPSKVKKILKEAKKLNKAQAPK
66 | 1.63 | 75.7 | PN-621 Variant, five sequences α8 and one sequence β8 (designed binder) ADNIFNREVQAAFYHILHLPNLTEEQRNAFIQSLRDDPSVVAEILAEARRLNDAQAPRADNIFNREVQAAFYHILHLPNLTEEQRNAFIQSLRDDPSVVAEILAEARRLNDAQAPRADNIFNREVQAAFYHILHLPNLTEEQRNAFIQSLRDDPSVVAEILAEARRLNDAQAPRADNIFNREVQAAFYHILHLPNLTEEQRNAFIQSLRDDPSVVAEILAEARRLNDAQAPRADNIFNREVQAAFYHILHLPNLTEEQRNAFIQSLRDDPSVVAEILAEARRLNDAQAPRADNIFNREVQAAFYHILHLPNLTEEQRNAFIQSLRDDPSKVKKILKEAKKLNKAQAPK
